Assay results published in the supplement of paper PMC9170038.

Key:
[1] = test system: MS2 coat protein; experiment: apparent KD of MS2 coat protein, switch ON state; designed switch direction (-1 OFF switch, 1 ON switch): -1; higher = weaker reporter binding; settings: FMN input: 0 or 200 uM; Eterna round: R93 (includes R88 designs)
How it was run: (§1)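 Values are apparent KD, taken as the median for each design of fits to normalised binding curves from individual clusters. The designed RNA switches were transcribed on-chip from Illumina sequencing clusters and exposed to SNAP-549-labelled MS2 coat protein at twofold increasing amounts from 0.7 or 1.5 nM to 3 µM. Titration used 100 mM Tris-HCl pH 7.5, 80 mM KCl and 4 mM MgCl2, without or with constant ligand.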

[2] = test system: MS2 coat protein; experiment: apparent KD of MS2 coat protein, switch OFF state (with FMN for OFF switches, without FMN for ON switches); designed switch direction (-1 OFF switch, 1 ON switch): -1; higher = weaker reporter binding; settings: FMN input: 0 or 200 uM; Eterna round: R93 (includes R88 designs)
How it was run: as §1

Row | Sequence | apparent KD of MS2 coat protein [1] [nM] | apparent KD of MS2 coat protein [2] [nM]
1 | AGCUAGUCAGGAUAUACGAACAUGUCGGUGGACGUGAAGGGACAUGAGGAUCACCCAUGUAGAAGGGACUAGCA [salish99-Ex2-21] | 41.3 | 91.5
2 | GAAAAACAUGAGGAUCACCCAUGUCAGGAUAUGUAGAAAAAGAAAAAAAGAAAAGAAAACAGAAGGGACAAAAG [Mat - Same state - Mayanna Mod - D105] | 32.6 | 38.5
3 | AUCUACCUAGGAUAUACAUGAGGAUCACCCAUGUACAGUUUCAACUAGGGAUACUCACGUAGAAGGAGGUAGAU [JR_Exc003_Sub1210] | 34.8 | 21.2
4 | AAAAAAGCAGGAUAUACGAACAUGUCAAAAGACGUGAAGGGACAUGAGGAUCACCCAUGUAGAAGGGUUAAGAA [JL Stem Breaker 16] | 179 | 36.8
5 | CCAAACGGAGGAUAUACAAAUUAAGGAAAAAAACGCGAAAAACAUGAGGAUCACCCAUGUAGAAGGCCGAAAAA [Ex 2 #2] | 20.3 | 18.5
6 | GGAAAGUGAGGAUAUGCAUAACAAAUACAAAGAGAAACAAAGCAGAAGGCACAUGAGGAUCACCCAUGUAAACA [Exclusion 4 Float] | 27.3 | 22.7
7 | AACUGACAUGAGGAUCACCCAUGUCAGGAUAUGACAUCGAGAAAAAAAAAAAUCGUUGUCAGAAGGGACAUGAA [Design 78: Sub-opt T] | 12.4 | 13.6
8 | AGUAGUACAGGAUAUACAUGAGGAUCACCCAUGUGAAAAUAAAGUGGCGUACCACAAAGUAGAAGGGUACUACA [Mat - Exclusion 3 - JL mod - D35] | 27.9 | 138
9 | AACAGUACAGGAUAUACAUGAGGAUCACCCAUGUGAGAAUUAAGUGGCGUACCACAAAGUAGAAGGGUACUGAA [Mat - Exclusion 3 - JL mod - D6] | 30.8 | 97.3
10 | AAAAAACAUGAGGAUCACCCAUGUAAGGAUAUGUAAAAUAAAAGAAAAAUAAAGAAAAGCAGAAGGUACAUGUA [JL wbt mod 16] | 40.4 | 44.5
11 | UCCUCACAUGAGGAUCACCCAUGUCAGGAUAUCUCACAGCGAAAGAAUAAAGGCUGCAAGAGAAGGGACACAAA [Raisa] | 22.7 | 44.2
12 | AGCAGGUGAGGAUAUCGAUUAAGAUUAACAUUAUUAUUAAACGAGAAGGCACAUGAGGAUCACCCAUGUAAGGA [Exclusion 4Col] | 43.4 | 51.8
13 | GGGUAACAUGAGGAUCACCCAUGUGAGGAUAUUCUAGGGAUGGAAGCUCGGCCGGCCAGGAGAAGGUACUAAAG [Janelle Amethyst 18 Mod 20 - Jieux - Exclusion 1] | 26.3 | 36.8
14 | AACGAACAUGAGGAUCACCCAUGUCAGGAUAUGCAAAGAACGAUCGAACGAACGAUAAGCAGAAGGGACAGAGA [Amethyst 97] | 27.7 | 40.4
15 | AGCAAGUCAGGAUAUGCGAAGUCAGGACACACACUGACGAAGCAGAAGGGACAUGAGGAUCACCCAUGUAAGCA [JR_Exclusion4_Sub6] | 42.5 | 39.3
16 | AAAAAACAUGAGGAUCACCCAUGUCAGGAUAUCGUGCAGAAAAAAAAAAAAAACUGCACGAGAAGGGACAUGAA [Mod of jnicol] | 42 | 94.9
17 | AGCUAGUCAGGAUAUACGAACAUGUCAAAAGACGUGAAGGAACAUGAGGAUCACCCAUGUAGAAGGGACUAGCA [Diamond 19] | 19.3 | 16.5

Row | Sequence | apparent KD of MS2 coat protein [1] [nM] | apparent KD of MS2 coat protein [2] [nM]
18 | AGCUAGUCAGGAUAUGCAUGAAAAAAAAAAAAAAAAAAAAAACAUGAGGAUCACCCAUGUAGAAGGGACUAGCA [Starry Exclusion 2 (jandersonlee round 1 mod)] | 126 | 212
19 | UCCGGAUUAGGAUAUACAUGAGGAUCACCCAUGUGACAAAAAUAUUUUACAAAACCAUGUAGAAGGAAUCCGGA [E3-1.3] | 125 | 408
20 | GAAGAACAUGAGGAUCACCCAUGUCAGGAUAUGCACUACGGAAUAAUAAGUAAUGGAAGUAGAAGGGACAAGAA [Ex 1 May 53] | 26.2 | 26.4
21 | AUAAGAGCAGGAUAUACGUAUAUGAUGCCAGGACCGCGUCCACAUGAGGAUCACCCAUGUAGAAGGGCUUGAAA [Disoleve] | 35.7 | 19.2
22 | AAGGUAUGAGGAUAUACAUAGAUACAGACACAUGUUCAAGUACAUGAGGAUCACCCAUGUAGAAGGCAUAUAUA [AJ 14] | 24.2 | 33
23 | CCAAAGUGAGGAUAUACGCGAACAAAAAAAAAAAAGAAAGCGUAGAAGGCACAUGAGGAUCACCCAUGUCCAGG [Alfred 64% 1] | 41 | 99.3
24 | AAGACUAGAGGAUAUACAUGAGGAUCACCCAUGUAACUGUCAGGAGACUGACGGAGAAGUAGAAGGCUAGUCAA [Mat - Exclusion 3 - JL mod - D84] | 15.8 | 19.4
25 | UCCUUACAUGAGGAUCACCCAUGUUAGGAUAUCUCGCUUGCGCAAUCACAGCGCAAGCAGAGAAGGGACGCGGG [Ledige] | 22.8 | 29.1
26 | AAAAAGUGAGGAUAUACGUUGAAGAGAAAACACAUCCAGGCGUAGAAGGCACAUGAGGAUCACCCAUGUACAAA [Ex4 Malc#7] | 23.4 | 19.8
27 | AUAAUGAGAGGAUAUACAUGAGGAUCACCCAUGUAAUUAAAAAGGAGAGAAACAAUACGUAGAAGGCUCAUUUA [JR_Exc003+Sub601] | 21.6 | 50.6
28 | ACCGAACAUGAGGAUCACCCAUGUGAGGAUAUAGACGCAAAUUAAACGCGUAACAAAACUAGAAGGCACUGGGC [Veais] | 27.6 | 15.3
29 | AACAUGUCAGGAUAUGUACGAAAAAAUAAAAAAAUAAAAGUACAGAAGGGACAUGAGGAUCACCCAUGUCAAAA [EX4 394: Minimal 7] | 33.4 | 47.4
30 | ACCAGACAUGAGGAUCACCCAUGUCAGGAUAUCUAGAAAACCUCAUGUAAAAAAAUCUAGAGAAGGGAUAUGGA [Design 94: Pseudoknot D] | 40.6 | 54.7
31 | CGCAAGUCAGGAUAUUCGACAGGUAAAUCAGUAGAUCAGAAGAAGAAGGGACAUGAGGAUCACCCAUGUAAGUA [JR_Exc004_Sub405] | 41.1 | 24.3
32 | AAAACUGGAGGAUAUACAUGAGGAUCACCCAUGUGUGGAUGAGCUGUGUCGGCGUCAAGUAGAAGGCCACAAAA [Gilly Gone Silly 36 - Jieux - Exclusion 3] | 36.7 | 43.1
33 | AAUUCACAUGAGGAUCACCCAUGUAAGGAUAUCGAAAUAAAACUAAUCAAAAAACAAACGAGAAGGUACAAAAA [Exclusion 1 design 7] | 23.6 | 26.3
34 | CCCAUGUCAGGAUAUCAGUAGUAAAAAAAAAAAAUUACUACUGAGAAGGGACAUGAGGAUCACCCAUGUCAAAA [EX4 315: Super Stable 15] | 80.2 | 21
